Data set [1] deals with Factor X (FX), P00742.
For data set [2], the target named is Factor X (FX), substrate zymogen, P00742.
The target of data set [3] is Antithrombin III (plasma purified human AT-III, Molecular Innovations), as AT-III/UFH complex.
Data set [4] has as its target plasma purified human AT-III (antithrombin III), in complex with full-length unfractionated heparin (AT-III/UFH).

Sequence of Factor X (FX), P00742 (P00742 whole entry, looked up): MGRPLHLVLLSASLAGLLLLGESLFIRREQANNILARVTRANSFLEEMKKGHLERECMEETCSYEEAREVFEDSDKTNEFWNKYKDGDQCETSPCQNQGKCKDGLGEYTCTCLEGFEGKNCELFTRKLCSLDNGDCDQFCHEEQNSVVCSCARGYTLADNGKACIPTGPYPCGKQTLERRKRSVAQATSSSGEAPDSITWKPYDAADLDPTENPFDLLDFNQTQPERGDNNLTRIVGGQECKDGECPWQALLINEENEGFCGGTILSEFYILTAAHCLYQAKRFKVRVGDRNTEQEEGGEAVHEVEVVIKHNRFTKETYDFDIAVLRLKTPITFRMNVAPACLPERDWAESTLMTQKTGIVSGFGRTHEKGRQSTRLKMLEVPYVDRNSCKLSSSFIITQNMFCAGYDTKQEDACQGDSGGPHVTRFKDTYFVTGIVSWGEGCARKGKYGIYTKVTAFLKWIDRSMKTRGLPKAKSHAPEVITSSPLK
Sequence of Factor X (FX), substrate zymogen, P00742 (P00742 whole entry, looked up): as above

B1: FIXa-R318Y/R338E/T343R/E410N (protein)
chain 1: YNSGKLEEFVQGNLERECMEEKCSFEEAREVFENTERTTEFWKQYVDGDQCESNPCLNGGSCKDDINSYECWCPFGFEGKNCELDVTCNIKNGRCEQFCKNSADNKVVCSCTEGYRLAENQKSCEPAVPFPCGRVSVSQTSKLTR
chain 2: VVGGEDAKPGQFPWQVVLNGKVDAFCGGSIVNEKWIVTAAHCVETGVKITVVAGEHNIEETEHTEQKRNVIRIIPHHNYNAAINKYNHDIALLELDEPLVLNSYVTPICIADKEYTNIFLKFGSGYVSGWGRVFHKGYSALVLQYLRVPLVDRATCLESTKFRIYNNMFCAGFHEGGRDSCQGDSGGPHVTEVEGTSFLTGIISWGEECAMKGKYGIYTKVSRYVNWIKNKTKLT
For the protein B1, in data set [1], the KM was found to be 0.0164 µM and the kcat of FX activation by FIXa in the Xase complex (FVIIIa, PC/PS vesicles, Ca2+) was 4.9 s⁻¹. In addition, the “catalytic activity (kcat/KM) for activation of FX in the Xase complex (FVIIIa, PC/PS vesicles, Ca2+), fluorogenic FXa read-out” value in data set [2] is given as “displayed some of the greatest increases in catalytic activity”.

B2: FIXa-R318Y/R338E/T343R/N346Y/R403E/E410N (protein)
chain 1: YNSGKLEEFVQGNLERECMEEKCSFEEAREVFENTERTTEFWKQYVDGDQCESNPCLNGGSCKDDINSYECWCPFGFEGKNCELDVTCNIKNGRCEQFCKNSADNKVVCSCTEGYRLAENQKSCEPAVPFPCGRVSVSQTSKLTR
chain 2: VVGGEDAKPGQFPWQVVLNGKVDAFCGGSIVNEKWIVTAAHCVETGVKITVVAGEHNIEETEHTEQKRNVIRIIPHHNYNAAINKYNHDIALLELDEPLVLNSYVTPICIADKEYTNIFLKFGSGYVSGWGRVFHKGYSALVLQYLRVPLVDRATCLESTKFRIYYNMFCAGFHEGGRDSCQGDSGGPHVTEVEGTSFLTGIISWGEECAMKGKYGIYTKVSEYVNWIKNKTKLT
B2 returned a K0.5-mut/K0.5-wt (against Catalyst Biosciences WT FIXa) in data set [3] above 517. In addition, in data set [1], the KM was 0.0158 µM and the kcat of FX activation by FIXa in the Xase complex (FVIIIa, PC/PS vesicles, Ca2+) was determined as 4.6 s⁻¹.

B3: FIXa-R318Y/R338E/N346Y/R403E/E410N (protein)
chain 1: YNSGKLEEFVQGNLERECMEEKCSFEEAREVFENTERTTEFWKQYVDGDQCESNPCLNGGSCKDDINSYECWCPFGFEGKNCELDVTCNIKNGRCEQFCKNSADNKVVCSCTEGYRLAENQKSCEPAVPFPCGRVSVSQTSKLTR
chain 2: VVGGEDAKPGQFPWQVVLNGKVDAFCGGSIVNEKWIVTAAHCVETGVKITVVAGEHNIEETEHTEQKRNVIRIIPHHNYNAAINKYNHDIALLELDEPLVLNSYVTPICIADKEYTNIFLKFGSGYVSGWGRVFHKGYSALVLQYLRVPLVDRATCLESTKFTIYYNMFCAGFHEGGRDSCQGDSGGPHVTEVEGTSFLTGIISWGEECAMKGKYGIYTKVSEYVNWIKNKTKLT
The protein B3 displayed a K0.5-mut/K0.5-wt (against Catalyst Biosciences WT FIXa) in data set [3] above 517. In addition, in data set [1], the KM was determined as 0.0281 µM and the kcat of FX activation by FIXa in the Xase complex (FVIIIa, PC/PS vesicles, Ca2+) amounted to 3.4 s⁻¹.

B4: FIXa-D104N/K106S/Y155F/K247N/N249S/N260S (protein)
chain 1: YNSGKLEEFVQGNLERECMEEKCSFEEAREVFENTERTTEFWKQYVDGDQCESNPCLNGGSCKDDINSYECWCPFGFEGKNCELDVTCNIKNGRCEQFCKNSANNSVVCSCTEGYRLAENQKSCEPAVPFPCGRVSVSQTSKLTR
chain 2: VVGGEDAKPGQFPWQVVLNGKVDAFCGGSIVNEKWIVTAAHCVETGVKITVVAGEHNIEETEHTEQNRSVIRIIPHHNYSAAINKYNHDIALLELDEPLVLNSYVTPICIADKEYTNIFLKFGSGYVSGWGRVFHKGRSALVLQYLRVPLVDRATCLRSTKFTIYNNMFCAGFHEGGRDSCQGDSGGPHVTEVEGTSFLTGIISWGEECAMKGKYGIYTKVSRYVNWIKEKTKLT
In turn, B4 returned a K0.5-mut/K0.5-wt (against Catalyst Biosciences WT FIXa) in data set [3] of 35.8. In data set [1], the KM (nM); Catalytic activity of FIXa variants (KM) worked out at 68.5 nM and the kcat of FX activation by FIXa in the Xase complex (FVIIIa, PC/PS vesicles, Ca2+) came to 0.5 s⁻¹.

B5: FIXa-R318Y/R338E/Y345A/N346D/R403E/E410N (protein)
chain 1: YNSGKLEEFVQGNLERECMEEKCSFEEAREVFENTERTTEFWKQYVDGDQCESNPCLNGGSCKDDINSYECWCPFGFEGKNCELDVTCNIKNGRCEQFCKNSADNKVVCSCTEGYRLAENQKSCEPAVPFPCGRVSVSQTSKLTR
chain 2: VVGGEDAKPGQFPWQVVLNGKVDAFCGGSIVNEKWIVTAAHCVETGVKITVVAGEHNIEETEHTEQKRNVIRIIPHHNYNAAINKYNHDIALLELDEPLVLNSYVTPICIADKEYTNIFLKFGSGYVSGWGRVFHKGYSALVLQYLRVPLVDRATCLESTKFTIADNMFCAGFHEGGRDSCQGDSGGPHVTEVEGTSFLTGIISWGEECAMKGKYGIYTKVSEYVNWIKNKTKLT
Consider B5, for which, in data set [3], the K0.5-mut/K0.5-wt (against Catalyst Biosciences WT FIXa) was above 517. Also, in data set [1], the KM amounted to 0.0565 µM and the kcat of FX activation by FIXa in the Xase complex (FVIIIa, PC/PS vesicles, Ca2+) is 1.2 s⁻¹.

B6: FIXa-R318Y/R338E/T343R/N346D/R403E/E410N (protein)
chain 1: YNSGKLEEFVQGNLERECMEEKCSFEEAREVFENTERTTEFWKQYVDGDQCESNPCLNGGSCKDDINSYECWCPFGFEGKNCELDVTCNIKNGRCEQFCKNSADNKVVCSCTEGYRLAENQKSCEPAVPFPCGRVSVSQTSKLTR
chain 2: VVGGEDAKPGQFPWQVVLNGKVDAFCGGSIVNEKWIVTAAHCVETGVKITVVAGEHNIEETEHTEQKRNVIRIIPHHNYNAAINKYNHDIALLELDEPLVLNSYVTPICIADKEYTNIFLKFGSGYVSGWGRVFHKGYSALVLQYLRVPLVDRATCLESTKFRIYDNMFCAGFHEGGRDSCQGDSGGPHVTEVEGTSFLTGIISWGEECAMKGKYGIYTKVSEYVNWIKNKTKLT
Consider B6, for which, in data set [3], the K0.5-mut/K0.5-wt (against Catalyst Biosciences WT FIXa) was above 517. In data set [1], the KM is 0.067 µM and the kcat of FX activation by FIXa in the Xase complex (FVIIIa, PC/PS vesicles, Ca2+) worked out at 5.4 s⁻¹.

B7: FIXa-Y155F/K247N/N249S/N260S (protein)
chain 1: YNSGKLEEFVQGNLERECMEEKCSFEEAREVFENTERTTEFWKQYVDGDQCESNPCLNGGSCKDDINSYECWCPFGFEGKNCELDVTCNIKNGRCEQFCKNSADNKVVCSCTEGYRLAENQKSCEPAVPFPCGRVSVSQTSKLTR
chain 2: VVGGEDAKPGQFPWQVVLNGKVDAFCGGSIVNEKWIVTAAHCVETGVKITVVAGEHNIEETEHTEQNRSVIRIIPHHNYSAAINKYNHDIALLELDEPLVLNSYVTPICIADKEYTNIFLKFGSGYVSGWGRVFHKGRSALVLQYLRVPLVDRATCLRSTKFTIYNNMFCAGFHEGGRDSCQGDSGGPHVTEVEGTSFLTGIISWGEECAMKGKYGIYTKVSRYVNWIKEKTKLT
The protein B7 showed a K0.5-mut/K0.5-wt (against Catalyst Biosciences WT FIXa) in data set [3] of 7.9. Further, in data set [1], the KM (nM); Catalytic activity of FIXa variants (KM) turned out to be 96.5 nM and the kcat of FX activation by FIXa in the Xase complex (FVIIIa, PC/PS vesicles, Ca2+) is 1.8 s⁻¹.

B8: FIXa-Y155F/R318Y/R338E/N346D/R403E/E410N (protein)
chain 1: YNSGKLEEFVQGNLERECMEEKCSFEEAREVFENTERTTEFWKQYVDGDQCESNPCLNGGSCKDDINSYECWCPFGFEGKNCELDVTCNIKNGRCEQFCKNSADNKVVCSCTEGYRLAENQKSCEPAVPFPCGRVSVSQTSKLTR
chain 2: VVGGEDAKPGQFPWQVVLNGKVDAFCGGSIVNEKWIVTAAHCVETGVKITVVAGEHNIEETEHTEQKRNVIRIIPHHNYNAAINKYNHDIALLELDEPLVLNSYVTPICIADKEYTNIFLKFGSGYVSGWGRVFHKGYSALVLQYLRVPLVDRATCLESTKFTIYDNMFCAGFHEGGRDSCQGDSGGPHVTEVEGTSFLTGIISWGEECAMKGKYGIYTKVSEYVNWIKNKTKLT
Turning to B8, the K0.5-mut/K0.5-wt (against Catalyst Biosciences WT FIXa) in data set [4] and in data set [3] was above 517 in each case. Further, the KM (nM); Catalytic activity of FIXa variants (KM) in data set [1] worked out at 100 nM. Moreover, the kcat of FX activation by FIXa in the Xase complex (FVIIIa, PC/PS vesicles, Ca2+) in data set [1] is 6.4 s⁻¹.

B9: FIXa-K247N/N249S/N260S/R318Y/R338E/R403E/E410N (protein)
chain 1: YNSGKLEEFVQGNLERECMEEKCSFEEAREVFENTERTTEFWKQYVDGDQCESNPCLNGGSCKDDINSYECWCPFGFEGKNCELDVTCNIKNGRCEQFCKNSADNKVVCSCTEGYRLAENQKSCEPAVPFPCGRVSVSQTSKLTR
chain 2: VVGGEDAKPGQFPWQVVLNGKVDAFCGGSIVNEKWIVTAAHCVETGVKITVVAGEHNIEETEHTEQNRSVIRIIPHHNYSAAINKYNHDIALLELDEPLVLNSYVTPICIADKEYTNIFLKFGSGYVSGWGRVFHKGYSALVLQYLRVPLVDRATCLESTKFTIYNNMFCAGFHEGGRDSCQGDSGGPHVTEVEGTSFLTGIISWGEECAMKGKYGIYTKVSEYVNWIKNKTKLT
In data set [3], B9 yielded a K0.5-mut/K0.5-wt (against Catalyst Biosciences WT FIXa) of 288. Also, in data set [1], the KM came to 0.0474 µM; the KM (nM); Catalytic activity of FIXa variants (KM) was found to be 62.2 nM; the kcat of FX activation by FIXa in the Xase complex (FVIIIa, PC/PS vesicles, Ca2+) is 3.4 s⁻¹; the kcat/KM was 9.7e+07 M⁻¹ s⁻¹.

B10: FIXa-R318Y/R338E/Y345A/R403E/E410N (protein)
chain 1: YNSGKLEEFVQGNLERECMEEKCSFEEAREVFENTERTTEFWKQYVDGDQCESNPCLNGGSCKDDINSYECWCPFGFEGKNCELDVTCNIKNGRCEQFCKNSADNKVVCSCTEGYRLAENQKSCEPAVPFPCGRVSVSQTSKLTR
chain 2: VVGGEDAKPGQFPWQVVLNGKVDAFCGGSIVNEKWIVTAAHCVETGVKITVVAGEHNIEETEHTEQKRNVIRIIPHHNYNAAINKYNHDIALLELDEPLVLNSYVTPICIADKEYTNIFLKFGSGYVSGWGRVFHKGYSALVLQYLRVPLVDRATCLESTKFTIANNMFCAGFHEGGRDSCQGDSGGPHVTEVEGTSFLTGIISWGEECAMKGKYGIYTKVSEYVNWIKNKTKLT
Regarding B10, in data set [3], the K0.5-mut/K0.5-wt (against Catalyst Biosciences WT FIXa) is above 517. Moreover, in data set [1], the Michaelis constant (KM) worked out at 0.0188 µM and the kcat of FX activation by FIXa in the Xase complex (FVIIIa, PC/PS vesicles, Ca2+) worked out at 1.4 s⁻¹.

B11: FIXa-D104N/K106S/K247N/N249S/N260S (protein)
chain 1: YNSGKLEEFVQGNLERECMEEKCSFEEAREVFENTERTTEFWKQYVDGDQCESNPCLNGGSCKDDINSYECWCPFGFEGKNCELDVTCNIKNGRCEQFCKNSANNSVVCSCTEGYRLAENQKSCEPAVPFPCGRVSVSQTSKLTR
chain 2: VVGGEDAKPGQFPWQVVLNGKVDAFCGGSIVNEKWIVTAAHCVETGVKITVVAGEHNIEETEHTEQNRSVIRIIPHHNYSAAINKYNHDIALLELDEPLVLNSYVTPICIADKEYTNIFLKFGSGYVSGWGRVFHKGRSALVLQYLRVPLVDRATCLRSTKFTIYNNMFCAGFHEGGRDSCQGDSGGPHVTEVEGTSFLTGIISWGEECAMKGKYGIYTKVSRYVNWIKEKTKLT
In the case of B11, in data set [3], the K0.5-mut/K0.5-wt (against Catalyst Biosciences WT FIXa) was determined as 65.3. In addition, in data set [1], the KM (nM); Catalytic activity of FIXa variants (KM) is 61.2 nM and the kcat of FX activation by FIXa in the Xase complex (FVIIIa, PC/PS vesicles, Ca2+) turned out to be 0.6 s⁻¹.

A word on the KM: it is the concentration of substrate that gives half-maximal velocity. As a reminder, the kcat/KM is the turnover number divided by the Michaelis constant.

The values above are taken from patent publication US20210230570.
